Values belong to the molecule of their own block, whether it stands above or below them.
Legend:
[1] = biological target: Tie2-Fc (Beijing Sino Biological, Catalog No. 10700-H03H) (UniProt Q02763); experiment: ELISA: biotin-Ang2 (0.2 ug/mL) on coated Tie2-Fc, no antibody (blank of the blocking assay)
human VEGF165 = biological target: T1, human VEGF165 (human, UniProt P15692-4 27-191); experiment: BLI (ForteBio), bivalent binding; * exceeds ForteBio detection limit
T1 construct: all are put under this molecule; also called VEGF A; VEGFA
T1 sequence (P15692 other isoform, or with tags, fused parts or gaps limits assumed): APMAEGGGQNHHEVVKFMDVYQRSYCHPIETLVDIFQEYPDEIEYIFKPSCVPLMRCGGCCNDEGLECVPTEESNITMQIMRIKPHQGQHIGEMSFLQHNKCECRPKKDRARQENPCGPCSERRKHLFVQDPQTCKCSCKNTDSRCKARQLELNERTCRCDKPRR

human Ang2 = biological target: T2, human Ang2 (human, UniProt O15123 19-496, limits assumed); experiment: blocking ELISA: biotinylated hAng2 on coated hTie2, antibody titrated from 300 nM
T2 construct: Bought proteins; also called hAng2-biotin; Ang2-Bio (Sino)
T2 sequence (looked up): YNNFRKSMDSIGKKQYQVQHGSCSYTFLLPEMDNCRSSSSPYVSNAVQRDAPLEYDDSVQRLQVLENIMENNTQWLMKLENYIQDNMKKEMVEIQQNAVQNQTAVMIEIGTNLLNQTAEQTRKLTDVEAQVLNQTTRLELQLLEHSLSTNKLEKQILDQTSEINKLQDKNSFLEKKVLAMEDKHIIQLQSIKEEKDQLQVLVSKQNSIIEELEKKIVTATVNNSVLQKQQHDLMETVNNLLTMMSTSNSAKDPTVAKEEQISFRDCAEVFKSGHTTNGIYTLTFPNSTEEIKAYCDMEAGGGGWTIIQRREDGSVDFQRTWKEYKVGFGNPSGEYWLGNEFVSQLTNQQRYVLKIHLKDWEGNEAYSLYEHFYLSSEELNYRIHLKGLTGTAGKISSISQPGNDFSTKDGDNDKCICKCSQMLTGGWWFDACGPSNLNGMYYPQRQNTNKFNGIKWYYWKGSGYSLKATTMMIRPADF

Sequence of Tie2-Fc (Beijing Sino Biological, Catalog No. 10700-H03H) (Q02763 23-745 limits assumed): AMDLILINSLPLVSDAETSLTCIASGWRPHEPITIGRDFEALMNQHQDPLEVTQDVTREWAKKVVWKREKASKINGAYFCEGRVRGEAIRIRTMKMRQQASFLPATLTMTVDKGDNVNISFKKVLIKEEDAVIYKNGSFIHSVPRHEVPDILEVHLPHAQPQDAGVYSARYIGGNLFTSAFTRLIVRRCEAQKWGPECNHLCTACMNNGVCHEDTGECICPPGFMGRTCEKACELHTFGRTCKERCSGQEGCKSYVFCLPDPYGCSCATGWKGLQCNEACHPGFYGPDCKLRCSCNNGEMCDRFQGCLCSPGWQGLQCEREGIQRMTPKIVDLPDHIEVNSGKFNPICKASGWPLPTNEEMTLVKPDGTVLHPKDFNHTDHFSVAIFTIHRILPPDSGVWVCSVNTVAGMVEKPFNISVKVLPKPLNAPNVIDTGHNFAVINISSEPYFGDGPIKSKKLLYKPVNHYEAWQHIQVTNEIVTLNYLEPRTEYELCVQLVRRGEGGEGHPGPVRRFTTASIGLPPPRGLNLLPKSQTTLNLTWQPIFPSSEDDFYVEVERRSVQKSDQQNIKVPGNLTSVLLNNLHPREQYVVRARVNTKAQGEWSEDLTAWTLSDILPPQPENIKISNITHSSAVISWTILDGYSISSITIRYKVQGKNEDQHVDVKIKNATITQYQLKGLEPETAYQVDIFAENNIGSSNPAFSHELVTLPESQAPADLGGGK

OD450nm [1]: 3.45 OD450nm
Molecule: human Ang2 (from UniProt O15123 19-496) (ligand)

koff (human VEGF165): ≤ 0.0002 s⁻¹
B1: LA46E11 (VHH)
VHH: QVQLEESGGGLVQPGGSLRLSCVASGSIFSINAMGWHRQAPGSQRELVATMIGGSSTFYADSVNGRFTISRDNAKNTVYLQMNSLKLEDTAVYYCYADVTGRSGTSIWNKRDDYWGQGTLVTVSS
notes: Alpaca immune-library VHH; also called LA46E11 (VEGFA VHH); anti-VEGF A VHH antibody

binding result (human Ang2): binds
B2: IEX04-008 (bispecific antibody)
chain: EVQLLESGGGLVQPGGSLRLSCAASGSIFSINAMGWHRQAPGKQRELVATMIGGSSTFYAESVQGRFTISRDNSKNTVYLQMNSLRAEDTAVYYCYADVTGRSGTSIWNKRDDYWGQGTQVTVSSGGGGSGGGGSEVQLLESGGGLVQPGGSLRLSCAASGSIFSINAMGWHRQAPGKQRELVATMIGGSSTFYAESVQGRFTISRDNSKNTVYLQMNSLRAEDTAVYYCYADVTGRSGTSIWNKRDDYWGQGTQVTVSSGGGGSGGGGSEVQLLESGGGLVQPGGSLRLSCAASGFALDYYAIGWFRQAPGKGLEGVSCISSGEGSTYYADSVKGRFTISRDNSKNTVYLQMNSLRAEDTAVYYCATDSRGDDVACEGLRRNEYDYWGQGTLVTVSS
notes: expressed in 293 cells; also called LA46E11.8 (VHH) + linker + LA46E11.8 (VHH) + LA24C11.10
